Laboratory results taken from the DeepSol protein solubility set.

assay: soluble on expression in E. coli; label from the status in PepcDB or PDB records

Soluble on expression in E. coli, soluble:
MAHHHHHHMKKLGLVLDAAAVEKSQRDLQSYQIKNNNSLQLRAFLLNESGMFTKDGRKLPGSVTKEVIDDTSKRIIGRGASGAVYFAKLKDGGPVALKHIPITSKPHRDEVDRELSFFSSQSNSPFVMKNLGAFWDSEEAAIVIPMEWMAYTLKDLSCFWEGIEETMLRDIFFQVVSGLVYLHDTKRVIHRDLKPSNLLIRDDGYVKIGDFGVSKLVHTLDVSSTYVGTMYFMAPERLEQGAYGFNSDVWSLGLTVLSTITGKNPWAPPEEMNIFQLLGRIAGDTTPTLPEKPAYSEEARDFVKKCLVRDPQERPSTAELLKHPFFKGCTEASAVANVKQGVDYMTRLINSDAKKNGLLKRSPEDVTKEVNAKLDRLGDL
MAHHHHHHMGTLEAQTQGPGSMVNWNALRSKAIEVSRHAYAPYSGFPVGAAALVDDGRTVTGCNVENVSYGLGLCAECAVVCALHSGGGGRLVALSCVGPDGGVLMPCGRCRQVLLEHGGPELLIDHAHGPRPLRELLPDAFGPDDLGRR
MYETQVQELSPEEAKRLYDQGVPFFDVREVEEYAQARIPGARLLPLSEFMARYGEIPKDTPVVLYCRTGNRSWQAAAWLSAQGYRVYNLEGGIVRWYRAGLPVDTTPMEAAYRATPYQEVGPEEAKALLEEAFVVDVREAWEYGEGHVPGAVNIPLSTLPQRLAELPKDRPILLVCNSGNRSGVAAEFLVAQGFDGERVYNLEGGTYAWASRGLPLER
MSLQQGDRVPAGLTLTNQAGESFRIGDYRGQTLVLTFIYTRCPLPTYCPLMSKQFAALQPQLRERYGEEAQLLSISFDPAYDTPQVLREYASKYTDRLDTWTFATGDSSQVERATGLFGVHAQKTGSEEITHNLTTALIGSEGHVRRLWRGNDWTPEDVRQAVAQVAEASEGHHHHHH
GSVSPTFQVVNSFAPVQECSTQLDIVIVLDGSNSIYPWESVIAFLNDLLKRMDIGPKQTQVGIVQYGENVTHEFNLNKYSSTEEVLVAANKIVQRGGRQTMTALGIDTARKEAFTEARGARRGVKKVMVIVTDGESHDNYRLKQVIQDCEDENIQRFSIAILGHYNRGNLSTEKFVEEIKSIASEPTEKHFFNVSDELALVTIVKALGERIFALEALERPHRD
AWVDQTPRTITKETGESLTIKCVLKDHSCGLSSTTWYRTQLGSTNEKTISIGGRYDETVDKGSKSFSLRISDLRVEDSGTYKCQADYSPSCYSYPSLESAVEGAGTVLTVK
MAELISFVVPTQSDKVLLVWDLSTGPPAEALSHSLFTVFSQFGLLYSVRVFPNAAVARPGFYAIIKFYSSRDAQRAQKACDGKPLFQTSPVKVRLGTRHKALQHQAFALNSSRCQELANYYFGFSGWSKRIIKLQELSGLEDAALAVPMQKGSPQFLCAVEVVLPPYGCRSPGVGISEEPLRQLEEGQSSFLMKRKTAQKLAFQAAVSDAFQKLTIVVLESGRIAVEYRPTAEDLDARSEEELQNLIQVSCSSWSQSSQREEECLSDFSLEEEDLKLCDPH

Soluble on expression in E. coli, not soluble:
MVIILRHVRVFNGVNECDIYLIGTAHVSKDSIEEVEKIISSVSPEGIAVELDDRRFFSLITNEEKKVDLKKVLKEGNFLKFFIYLILANSQKKIGESFGIKPGSEMKKAIEIASKYGLPIYLIDRDIDITLSRLMDRMTFKEKMKIFWELLNSDEEDLELDDDLLNDMVKNPEKFIKLLKEISPTIYEVLVDERDRFMAKRLFELSKNKNSLVAVVGAGHVEGIVRYLKKLENGNDIDLMELIKVKKRK
MKLATLKNNTRDGQLVVVNRALDKAVVVSHIAATLQAALDNWSEISPKLAEVYQSLNNNEITDTLVFEQAACESPLPRAYQWADGSAYVNHVELVRKARNAEMPATFWTDPLMYQGGSDAFIGPRDDISIASEEYGIDFESEVAVITDDVPMGISVEQAANHIKLLMLVNDVSLRNLIPGELAKGFGFFASKPSSAFSPVAVTPDELGDAWDGKKLHLPLTTHLNETLFGQPNCGVDMTFDFPTIVAHAAKTRPLSTGCVIGSGTISNYDRSVGSSCLAEIRMLEIIADGKPTTPFMSFGDTVRIEMFDNEGASIFGSIDQKVVEYKAQ
MGSDKIHHHHHHMAYLTIIKNGETIDHRKYGLKLLSFRKESLTHRTNFEEIGGRHGAIDTGTTFGERKLKATFLMQGVDHLDYQLMIDEVYALFACEDSIELIDSRQPGKVWTVKPSSTFEPDDLNPRSGKFEIEFTSPLPFASSYGSTLDPFTFGEEVWQIGQGLIPSDSLVYRHRTTRFSIFNAGNVEVDPCLEMPLNIVYKGASSNFSIKNKTTGQTISYNGTSKSTDSIKLEGLRHLKNGISIYGNTNRGYVSLKPGWNDFELTGTSGSFEITFDFFFFYK
MASQADAQELAALRALSASIGLNPHMTQAAGGNTSLKAGDTLWIKASGTWLKDALSDDIMVPVAMAPLLEAVEEGDPAADKPQAFAINELNPRGLRPSIETTVHALMPQRVVLHVHCVDTISLAVQADGEAEVARRLGGIEWAYVPYCRPGLPLARGISEKLRPNVDVLILGNHGLVVAADTVAEAQRLLHRVRSLLARPARATAAPDIAALTALAADSAYRLPADLEAHAVALDPQSRRMAEAGSLYPDHVIFLGQGSVVAKPGENAAGVATRLGAAPVAILFPGAGVLVRGDASAGADAMQRCLADVTARVDVAARLNYLTAAENDELVNWDAEQYRQKLNATGGLEHHHHHH
MGSDKIHHHHHHMCNISHSQVQYLATKGDGDLPAGTAAGTGRTRTFTLEEARIWVQKVSDIYQTPLVTRLKEPDGKIIITAQLKGGSAKTTTTMCLAQGLSLRGRKVLVLDLDPQASLSELCGLYAEKDVTPEDTVLPYIYDQEIEGGLEARVQSTYWDGIDVIPAHTELIGAEFHLPAMQKMRPGFRFWTVLRQGLEPLRKKYDYILMDTSPSLSYLNLNALMAADAMVMPMVPENLDFISSLSFWRLFSDVSKSFIKYEKDKKYDFVSLILSRVDYGRNSSAPIVRAWAQSAYENWLHSIEVPASSVMSTGALAFSTVFDISSTHSASKSLQRVRQPLIDYCRWVDEIYSEKWRSAQ
MAHHHHHHMTALITKQRYNWMGYDGVESAVCDTALLRSDGGPANNYNYMHRQQVIMEVKERLYRIKRDLGLIPEEELRAEERAIQRRRMEKKRREEEERIRKEAEEAARAEEMERRHLELEEAEERASAEEVATQASAEHKHYMNDSDEDSDEENGIDDEQSASLVAMLRTQEEIDSAIAGFTKGTRMLLASSGNGYVSYLDGSVHFTIAKVESHNASNREKVMQALAGTNVAMPTAEEYSLEEVRQAMHDRDTARKKLDALRALQDPTYTARIRSAEKDTYGTPVQQLMEEDGDMSALVANCEDAKRFAESVRKAYNSRAAASAHALACALCTPPFTAEQESTSEAQAPAGKMANAEDGVSQPTGANSPSSSTSAQ
MIVDSISSSTASTSSSSPTRGTPIRKSLQCAVCGDVALGKHYGVNACNGCKGFFRRSIWKNRTYACRHGGKCLVAKEQRNACRSCRLTRCLDVGMNPRAVQGDTVEDPEWDEEAMPETLSISTQTDALKVKKKSHTSLFTLDIKKEQIIDNLRAIYARTDPEEFWKLTYPGTYDFRYAFHNTKVVSPRTPLTPTAERIATLNDVVADFRRAFVLFVDILKSIDQLRDVQEDDKMKIAKSRFAAFYWWLCSTWSAKAGCNGVCYSNGSYHPASISDMPKSEGKHGVRIDYSGVSQKSLENLVEPLRRMELSDEERIVGAVMVILADPVPNVSTKTEKILAEARDFYLELLGYCIKLPEEQQGIRVSTMVLLLASIMELVHLTTDNIQLSDVLHVIDLGDWSQELRDHRYRRQF
MGSDKIHHHHHHMRFGWLEQPFTTLEQLDSLFEIHSPRKFTFADSFYAHENGRHFIFFEEVDDQHPVGFLSVLEVFKDGTYTPPETILKLDYHLSYPCVFKIDSTWYMIPESSANKTIELWKCTDFPMKWEKHSNLMENIEAVDSTPFYHEGLWYLFTSTRRDCKKFGDRLDLFFTEDILNPNWQEHPMNPACRGSQQFRMAGKPFIYKGQLVRPSQDSLKRYGGNIELKAITQLSPAAYEEKLLEVVLPDWNQADDGCHTINVEDNFVVLDAIRLTPKNN
MIKKYTCKNGVRIVMENIPTVRSVAIGIWIHAGSRNENEKNNGISHFLEHMFFKGTETRSAREIAESFDSIGGQVNAFTSKEYTCYYAKVLDEHAKYALDVLADMFFNSTFDEEELKKEKNVVCEEIKMYEDAPDDIVHDMLTKATYETHPLGYPILGTEETLNTFTGDTLRQYIKDHYTPENVVVSIAGNIDEAFLQTVEQYFGSYEGTTNREQVHSPIFHFNKVARKKETEQAHLCLGYKGLQMGHEDIYNLIVLNNVLGGSMSSRLFQEVREQRGLAYSVFSYHSSYEDTGMLTLYGGTGSQQLDTLYETMQETLETLKNTGITEKELINSKEQLKGNLMLSLESTNSRMSRNGKNELLLRKHRSLDEIIESVNTVTKENVDELIRNMFTDEFSAALISPDGKLPKGIKL
MLGHNKISVIIPAYNEERRIGNVLKGIPDFVDEVIVVDDGSSDGTSKVAMELGATVIRLNKNSGKGAAMREGLKISTGDIIVFMDADGQHNPKEIYRLVKPIVEGRADLVIGRRIITRGKRPMSRKISNFITTRLITLKTRKKILDTQSGFRAIRREFVPVIESDRYEVETEVLIKAIKKGARILEVPISTRYDVETGHFKMIDIFRFLFALIKYLEHHHHHH
MYGILCLSLRRIFQWHTYSMVRIHSLNTMNILTNLEFSFPILYSYETLNTMLRKQRRLYMPRTNYIDIMEKNHMEIPWHDYTNADSNALIANADLIEKASVIGRVGLIMLSCGTGAWRVRTSMNKLSKELGVTCTVDVGLMSIEFNCFDGNDCVSQSLSIANTGVNTSKLYRMEQFVDNFPNEEAHLTGEMIHKRLDEIEQIHTLYSPVKLG
KYQLMANDPVQYKALGKMLGSMGRSDPNEIAPLYFSELMAALKKCATRRTHTNVLQHLCGYLKQTISAEDKQEIQEVIGQYHQGIVPLIVPLTLLKHHFRQHPDPYVALQVYMQPHP
MGESGTKSRFPIRVQLEANKQYYWCRCGLSQSQPFCDGAHRGTGMNPVVFVVRETSPVWLCVCKETKNIPFCDCFRTDLEHHHHHH
MGSDKIHHHHHHMDTDLLRAFVTVAECEGFSAAGKVLHRTQSAVSLQIKRLEDQMGESLFERTSRSVVLTPPGGRLLPYARHILKLQDEARRVMGVDRQGELIRLGTSEEQASTYLPELLPRFAARFPEVRLEVSCSISGSLVHDFQEGLLDVALVVRHGPTQTGRLLGREPMVWVVAEDRAIDDWEILPLALNPEGCIFRAHAFAALGPTERRWDVRYSSRSPTGINLPVQAGLAATVKTPRSVPEGCRIVGEEEGLPPLGHVEIEMHRTPGHSSDAFVAFCDELEHIVTATDSLESLEYVAAEG
MSLKIAQATARVEAFALVRPYTIALRHVGTVENVIVQLQTASGLIGLGAASAAADVTGESDQACREALLGGAIGWLVGEDIRELPKLCRRLGERMAGRPAARAAVDIALHDLLAQHLGVPLVAMLGRVHTGLPTSITIGIKPLDETLAEAREYLGRGFRILKVKTGLDLEGDIERLARLREQVGDAVHLRVDPNQGYSIAEVEQFVRRTAHLFLEFLEQPIPAGDIAALRALPPDIRLRIAADESLLDERDALKLLTPSPACGIFNIKLMKCGGIRPALAIAGLAEIAGIELMWGCMDESIVSITAALHAALACPATRYLDLDGSLDLARDVVTGGFVLKDGYLSTREAPGLGVQLLSEGHHHHHH
